Measured values published in the nanobody polyreactivity screen of Harvey et al. (2022).

Test: yeast display, Sf9 membrane polyspecificity reagent, FACS + sequencing; frameworks hold sequencing errors
In short: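 Galactose-induced (36–48 hours) yeast carrying a synthetic nanobody display library were exposed to 10% biotinylated, detergent-solubilized Sf9 membrane reagent at 4 °C for 1 hour. FACS followed streptavidin microbead enrichment, using low and high (top ~1%) gates for expression (anti-HA) and reagent binding (streptavidin). Colony PCR, MiSeq 2 × 250 sequencing and CDR-length filtering followed. Labels for polyreactivity reflect the gate of origin.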
In the case of “QVQLVESGGGLVQAGGSLRLSCAASGSTFRYYAMGWYRQAPGKERELVAVISASGGTTYYADSVKGRFTISRDNAKNTVYLQMNSLKPEDTAVYYCAAREGWGFYYWGQGTQVTVSS”, the “polyreactivity (PSR sort gate)” value was “high polyreactivity”. For “QVQLVESGGGLVQAGGSLRLSCAASGSTFRYYSMGWYRQAPGKERELVAVISKSGARTYYADSVKGRFTISRDNAKNTVYLQMNSLQPEETSVYYCNAVFKLDSHYAMCYWGQGTQVTVSS”, the “polyreactivity (PSR sort gate)” value was “high polyreactivity”. With “QVQLVESGGGLVQAGGSLRLSCAASGSTFRYYVMGWYRPAPGKERELVAAITRGGSTNYADSVKGRFTISRDNAKNTVYLQMNSLKPEDTAVYYCAARGGWKRPFGYQLQYDYWGQGTQVTVSS” the “polyreactivity (PSR sort gate)” value was “high polyreactivity”. For “QVQLVESGGGLVQAGGSLRLSCAASGSTFRYYVMGWYRQAPGKERELVAAISSSGGSTYYADSVKGRFTISRDIAKNTVYLQMNSLKPEDTAVYYCARDKGYVSYRYNYWGQGTQVTVSS”, the “polyreactivity (PSR sort gate)” value was “high polyreactivity”. With “QVQLVESGGGLVQAGGSLRLSCAASGSTFRYYVMGWYSQSPGKERELVAGISYRGGTTYYADSVKGRFTISRDNAKNTVYLQMYILKPEDTAVYYCNAETAAAQASYDRLYVLLDYWGQGTQVTVSS” the “polyreactivity (PSR sort gate)” value was “low polyreactivity”. With “QVQLVESGGGLVQAGGSLRLSCAASGSTFSANPMGWYRQAPGKERELVASISRRGGSTYYADSVKGRFTISRDNAKNTVYLQMNNLKPEDTAVYYCAAYYEYRRDYWGQGTQVTVSS” the “polyreactivity (PSR sort gate)” value was “high polyreactivity”. In the case of “QVQLVESGGGLVQAGGSLRLSCAASGSTFSAYAMGGYRQAPGKERELVAVITSGASTYYADSVKGRFTISRDNAKNTVYLQMNSLKPEDTAVYYCAAYGYSYRGWRMDYWGQGTQVTVSS”, the “polyreactivity (PSR sort gate)” value was “high polyreactivity”. With “QVQLVESGGGLVQAGGSLRLSCAASGSTFSDNAMGWYRQAPGKERELVAANTSGGSTYYADSVKGRFTISRDNAKNTVYLQMNSLKPEDTAVYYCAADYWGQGTQVTVSS” the “polyreactivity (PSR sort gate)” value was “low polyreactivity”. In the case of “QVQLVESGGGLVQAGGSLRLSCAASGSTFSDYPMGWYRQAPGKERELVAAISDSGSGTYYADSVKGRFTISRDNAKNTVYLQMNSLKPEDTAVYYCNTDPRFAMDWGQGTQVTVSS”, the “polyreactivity (PSR sort gate)” value was “low polyreactivity”. With “QVQLVESGGGLVQAGGSLRLSCAASGSTFSDYTMGWYRQAPGKERELVAAITTIGGSTYYADSVKGRFTISRDNAKNTVYLQMNSLKPEDTAVYYCAASYYYPFEYYYWGQGTQVTVSS” the “polyreactivity (PSR sort gate)” value was “low polyreactivity”. With “QVQLVESGGGLVQAGGSLRLSCAASGSTFSENAMGWSRQAPGKERELVAAISWGGGSTYYADSVKGRFTISRDNAKNTVYLQMNSLKPEDTAVYYCNADVFDDYGYFESDYWGQGTQVTVSS” the “polyreactivity (PSR sort gate)” value was “low polyreactivity”. For “QVQLVESGGGLVQAGGSLRLSCAASGSTFSEYGMGWYRQAPGKERELVARITSGGSPYYADSVKGRFTISRDNAKYTVYLQMNSLKPEDTAVYYCATVKTRDYWGQGTQVTVSS”, the “polyreactivity (PSR sort gate)” value was “low polyreactivity”. For “QVQLVESGGGLVQAGGSLRLSCAASGSTFSFYAMGWYRQAPGKERELVAAISWSDGSTYYADSVKGRFTISRDNAKNTVYLQMNSLKPEDTAVYYCAARRLAYIFYTVGYDYWGQGTQVTVSS”, the “polyreactivity (PSR sort gate)” value was “low polyreactivity”. With “QVQLVESGGGLVQAGGSLRLSCAASGSTFSFYDMGWSRQAPGKEPELVAAITGSGGTTYYADSVKVRFTISRDNAKNTVYFQMNILKPEDTAFYYCAADSLESYPDYEYDFWGQGTQVTVSS” the “polyreactivity (PSR sort gate)” value was “low polyreactivity”. In the case of “QVQLVESGGGLVQAGGSLRLSCAASGSTFSGNAMGWDRQAPGKESELVAAINSVRTYYADSVKGRFTISRDNAKNTVYLQMNSLKQEDTAVYYCNAEGYVSLSQYGVRRHSDYWGQGTQVNVSS”, the “polyreactivity (PSR sort gate)” value was “high polyreactivity”. In the case of “QVQLVESGGGLVQAGGSLRLSCAASGSTFSGNAMGWYRQAPGKERELVAAITSSGGSTYYADSVKGRFTISRDTAKNTVYLQMNSLKPEDTAVYYCAAKSRRTRRSYYWGQGTQVTVSS”, the “polyreactivity (PSR sort gate)” value was “high polyreactivity”. For “QVQLVESGGGLVQAGGSLRLSCAASGSTFSGYAMGWYRQAPGKERELVAAISTSGGRTYYADSVKGRFTISRDNAKNTVYLQMNSLKPEDTAVYYCAAQYRGLYKGLGSWGQGTQVTVSS”, the “polyreactivity (PSR sort gate)” value was “high polyreactivity”. For “QVQLVESGGGLVQAGGSLRLSCAASGSTFSGYAMGWYRQAPGKERELVAAITSGGSTNYADSVKGRFTISRDNAKNTVYLQMNSLKPEDTAVYYCAADSREVSTTAYYYWGQGTQVTVSS”, the “polyreactivity (PSR sort gate)” value was “low polyreactivity”. For “QVQLVESGGGLVQAGGSLRLSCAASGSTFSGYAMGWYRQAPGKERELVAGIRLDGSRTYYADSVKGRFTISRDNAKNTVYLQMNSLKPEDTAVYYCAAPSGTYWTRREYWGQGSQVTVSS”, the “polyreactivity (PSR sort gate)” value was “low polyreactivity”. In the case of “QVQLVESGGGLVQAGGSLRLSCAASGSTFSGYVMGWYRQAPGKERELVAAISWGGSRTYYADSVKGRFTISRDNAKNTVYLQMNSLKPEDTAVYYCNAYTSYGTFFYWAWPYYYWGQGTQVTVSS”, the “polyreactivity (PSR sort gate)” value was “high polyreactivity”. With “QVQLVESGGGLVQAGGSLRLSCAASGSTFSINAMGWYRQAPGKERELVAAISSGGSTYYADSVKGRFTISRDNAKNTVYLQMNSLKPEDTAVYYCAVDPPWTYWSTYRYDYWGQGTQVTVSS” the “polyreactivity (PSR sort gate)” value was “low polyreactivity”. For “QVQLVESGGGLVQAGGSLRLSCAASGSTFSIYGMGWYRQAPGKERELVAVITARDGSTYYADSVKGRFTISRDNAKNTVYLQMNSLKPEDTAVYYCAADIGPRYDSWGQGTQVTVSS”, the “polyreactivity (PSR sort gate)” value was “high polyreactivity”. In the case of “QVQLVESGGGLVQAGGSLRLSCAASGSTFSKNAMGWYRQAPGKERELVAAIRSRGGSTYYADSVKGRFTISRDNAKNTVYLQMNSLKPEDTAVYYCNKVRAYEGDYWGQGTQVTVTS”, the “polyreactivity (PSR sort gate)” value was “high polyreactivity”. For “QVQLVESGGGLVQAGGSLRLSCAASGSTFSNNSIGWYRQAPWKETELVAAISWYGDSTYADSVKGRFTISRDNAKNTVYLQMNSLKAEATAVYYCAKDTIITPGRRKSPRDRHGYWGQGTQVTVSS”, the “polyreactivity (PSR sort gate)” value was “low polyreactivity”. With “QVQLVESGGGLVQAGGSLRLSCAASGSTFSNYALGWYSQAPGKERELVAAITSRGGRTYYADSVKGRFTISRDNAKNTVYLQMNSLKPEDTAVYYCAARVGSGRAIDLYYYWGQGTQVTVSS” the “polyreactivity (PSR sort gate)” value was “low polyreactivity”. In the case of “QVQLVESGGGLVQAGGSLRLSCAASGSTFSNYAMGWYRQAPGKERELVAAISVRGGSTYYADSVKGRFTISRDNAKNTVYLQMNSLKPEDTAVYYCAKYYYYLRSARKYDYWGQGTQVTVSS”, the “polyreactivity (PSR sort gate)” value was “high polyreactivity”. For “QVQLVESGGGLVQAGGSLRLSCAASGSTFSNYAMGWYRQAPGKERELVASISNGGSTNYADSVKGRFTISRDNAMNTVYLQMNSLKPEDTSVYNCNAESKAKYDYWGQGTQVTVSS”, the “polyreactivity (PSR sort gate)” value was “low polyreactivity”. For “QVQLVESGGGLVQAGGSLRLSCAASGSTFSPNAMGWYRQAPGKERELVAAITGGGSTYADSVKGRFTISRDNAKNTVYLQMNSLKPEDTAVYYFNADSYSFPYYYWGQGTQVTVSS”, the “polyreactivity (PSR sort gate)” value was “low polyreactivity”. With “QVQLVESGGGLVQAGGSLRLSCAASGSTFSPNAMGWYRQAPGKERELVAAITYRGANTYYADSVKGRFTISRDNEKNTVYLQMNSLKPEDNAVYYCAAEYAYHHVGFGYWGQGTQVTVSS” the “polyreactivity (PSR sort gate)” value was “low polyreactivity”. In the case of “QVQLVESGGGLVQAGGSLRLSCAASGSTFSPNAMGWYRQAPGKERELVADIDWSGGGTYYADSVKGRFTISRDNAKNTVYLQMNSLKPEDTAVYYCAAGYVWWPFEYDYWGQGTQVTVSS”, the “polyreactivity (PSR sort gate)” value was “high polyreactivity”.
